Experimental findings from PMC3361065 (Biochemistry, 2012) are described below.

What all share (test): EMSA
A general note: A gel shift assay detects complexes by their altered migration in electrophoresis.

For series [1], the target named is scMtRNAP ΔHNG;MTF1 (yeast mitochondrial transcription factor) (Saccharomyces cerevisiae?;Saccharomyces …, UniProt P13433;P14908 1-640+644-1351;1-341, internal_change|).
In series [2] the target is yeast mitochondrial RNA polymerase (scMtRNAP) WT;MTF1 (yeast mitochondrial transcription factor) (Saccharomyces cerevisiae?;Saccharomyces …, UniProt P13433;P14908 1-1351;1-341, |).
The target in series [3] is scMtRNAP ΔNGS;MTF1 (yeast mitochondrial transcription factor) (Saccharomyces cerevisiae?;Saccharomyces …, UniProt P13433;P14908 1-641+645-1351;1-341, internal_change|).
scMtRNAP ΔNGS;MTF1 (yeast mitochondrial transcription factor), sequence (P14908 whole entry, stated change not applied, one chain of several): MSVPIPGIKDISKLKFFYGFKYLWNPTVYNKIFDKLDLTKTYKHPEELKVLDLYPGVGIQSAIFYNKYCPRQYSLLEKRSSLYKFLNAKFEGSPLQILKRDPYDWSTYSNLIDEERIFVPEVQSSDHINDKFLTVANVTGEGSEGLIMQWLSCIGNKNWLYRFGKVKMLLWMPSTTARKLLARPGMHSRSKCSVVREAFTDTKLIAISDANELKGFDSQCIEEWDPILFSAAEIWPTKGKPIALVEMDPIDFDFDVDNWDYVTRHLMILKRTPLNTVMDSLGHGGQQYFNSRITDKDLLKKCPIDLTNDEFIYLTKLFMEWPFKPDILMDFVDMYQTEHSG
Series [4] deals with T1, yeast mitochondrial RNA polymerase (scMtRNAP) WT (UniProt P13433 1-1351).
T1 sequence: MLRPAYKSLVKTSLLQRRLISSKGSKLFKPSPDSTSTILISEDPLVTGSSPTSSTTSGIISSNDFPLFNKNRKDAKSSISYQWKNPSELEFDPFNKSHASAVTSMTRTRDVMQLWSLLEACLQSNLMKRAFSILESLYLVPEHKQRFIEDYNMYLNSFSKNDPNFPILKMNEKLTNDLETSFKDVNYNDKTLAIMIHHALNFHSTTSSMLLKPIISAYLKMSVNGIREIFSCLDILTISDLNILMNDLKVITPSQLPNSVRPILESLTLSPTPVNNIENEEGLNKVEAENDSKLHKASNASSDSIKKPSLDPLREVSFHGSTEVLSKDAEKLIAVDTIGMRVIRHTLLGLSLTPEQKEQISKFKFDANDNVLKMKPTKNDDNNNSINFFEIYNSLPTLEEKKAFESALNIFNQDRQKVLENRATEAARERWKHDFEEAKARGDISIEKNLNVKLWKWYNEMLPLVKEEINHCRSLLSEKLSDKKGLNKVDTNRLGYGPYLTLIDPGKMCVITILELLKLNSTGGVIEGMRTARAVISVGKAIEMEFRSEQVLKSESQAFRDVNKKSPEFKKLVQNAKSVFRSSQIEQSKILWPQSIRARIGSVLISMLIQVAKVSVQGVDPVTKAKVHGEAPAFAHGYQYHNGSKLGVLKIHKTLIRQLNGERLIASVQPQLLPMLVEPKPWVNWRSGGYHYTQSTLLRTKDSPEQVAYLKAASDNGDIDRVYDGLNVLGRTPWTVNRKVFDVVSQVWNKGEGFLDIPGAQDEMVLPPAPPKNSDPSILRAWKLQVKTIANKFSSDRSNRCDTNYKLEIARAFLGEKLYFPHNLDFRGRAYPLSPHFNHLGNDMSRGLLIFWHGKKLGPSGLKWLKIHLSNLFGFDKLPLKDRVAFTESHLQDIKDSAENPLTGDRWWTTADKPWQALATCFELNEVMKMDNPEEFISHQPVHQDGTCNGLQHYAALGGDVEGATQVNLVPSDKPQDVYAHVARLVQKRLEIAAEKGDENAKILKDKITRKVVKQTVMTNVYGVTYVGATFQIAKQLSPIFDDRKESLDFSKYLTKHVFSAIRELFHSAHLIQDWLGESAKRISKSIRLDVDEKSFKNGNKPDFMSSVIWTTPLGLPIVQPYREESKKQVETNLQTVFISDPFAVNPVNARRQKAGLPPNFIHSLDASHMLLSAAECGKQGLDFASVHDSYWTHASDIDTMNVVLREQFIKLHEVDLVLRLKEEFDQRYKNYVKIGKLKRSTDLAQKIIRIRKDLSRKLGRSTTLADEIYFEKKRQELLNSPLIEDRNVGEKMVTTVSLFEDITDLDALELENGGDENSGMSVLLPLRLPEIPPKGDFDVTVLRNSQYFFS

The next series has as its target T2, scMtRNAP ΔHNG (UniProt P13433 1-640+644-1351, internal_change).
T2 sequence: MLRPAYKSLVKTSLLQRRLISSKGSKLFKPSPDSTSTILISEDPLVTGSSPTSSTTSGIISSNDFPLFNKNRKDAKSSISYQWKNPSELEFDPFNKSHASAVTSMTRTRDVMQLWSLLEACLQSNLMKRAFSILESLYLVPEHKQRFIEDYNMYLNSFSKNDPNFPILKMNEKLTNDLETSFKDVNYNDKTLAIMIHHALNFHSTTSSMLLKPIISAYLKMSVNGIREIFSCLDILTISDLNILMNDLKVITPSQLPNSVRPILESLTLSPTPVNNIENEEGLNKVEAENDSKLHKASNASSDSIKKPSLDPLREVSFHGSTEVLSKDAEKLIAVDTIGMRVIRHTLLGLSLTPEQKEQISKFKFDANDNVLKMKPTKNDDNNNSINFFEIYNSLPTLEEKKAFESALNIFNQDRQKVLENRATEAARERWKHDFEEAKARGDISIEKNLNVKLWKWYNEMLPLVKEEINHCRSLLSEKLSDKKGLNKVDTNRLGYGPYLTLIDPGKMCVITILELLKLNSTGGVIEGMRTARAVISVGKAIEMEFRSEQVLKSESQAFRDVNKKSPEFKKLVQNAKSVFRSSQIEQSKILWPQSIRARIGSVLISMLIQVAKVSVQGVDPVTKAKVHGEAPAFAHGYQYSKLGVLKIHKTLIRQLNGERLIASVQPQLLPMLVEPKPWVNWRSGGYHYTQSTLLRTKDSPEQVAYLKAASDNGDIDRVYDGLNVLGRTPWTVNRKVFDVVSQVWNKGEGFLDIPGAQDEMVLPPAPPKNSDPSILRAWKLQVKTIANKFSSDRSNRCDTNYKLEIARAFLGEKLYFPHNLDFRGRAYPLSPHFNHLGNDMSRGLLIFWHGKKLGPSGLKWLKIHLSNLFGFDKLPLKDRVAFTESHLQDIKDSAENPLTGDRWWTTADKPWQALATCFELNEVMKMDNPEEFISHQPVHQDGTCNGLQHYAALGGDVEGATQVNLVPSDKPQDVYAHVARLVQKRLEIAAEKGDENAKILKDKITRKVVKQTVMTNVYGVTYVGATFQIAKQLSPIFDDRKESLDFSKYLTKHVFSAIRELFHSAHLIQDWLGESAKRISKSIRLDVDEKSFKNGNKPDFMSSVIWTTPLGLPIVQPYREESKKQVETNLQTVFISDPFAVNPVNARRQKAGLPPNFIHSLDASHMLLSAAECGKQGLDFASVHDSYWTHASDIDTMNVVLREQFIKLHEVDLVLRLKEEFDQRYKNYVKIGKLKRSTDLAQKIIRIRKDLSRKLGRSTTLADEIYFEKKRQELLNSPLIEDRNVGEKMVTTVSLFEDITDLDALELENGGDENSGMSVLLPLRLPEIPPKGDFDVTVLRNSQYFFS

B1: 33 bp Bubble (pre-melted) promoter (dsDNA)
DNA 1: CGCGTAAAACTATTCTTTATTACTTATATCGCG
DNA 2: CGCGATATGCAGCTTAAAGAATAGTTTTACGCG
One may read the Kd as the constant that tells how readily two partners part at equilibrium. With B1, the Kd is 340 nM in series [1]; 160 nM in series [2]; 430 nM in series [3]; 4300 nM in series [4]; 5300 nM with scMtRNAP ΔHNG.
